Laboratory results taken from article PMC5290278 (Nature Communications, 2017).

Target: T1, GST-NPHP4-C2^650-839 (human, UniProt O75161 650-839)
T1 construct: central C2 domain of NPHP4, residues 650-839; also called GST-N4-C2^2650-839 (as printed in the legend); GST fused to the central C2 domain of NPHP4; source: bacterially purified
T1 sequence (looked up): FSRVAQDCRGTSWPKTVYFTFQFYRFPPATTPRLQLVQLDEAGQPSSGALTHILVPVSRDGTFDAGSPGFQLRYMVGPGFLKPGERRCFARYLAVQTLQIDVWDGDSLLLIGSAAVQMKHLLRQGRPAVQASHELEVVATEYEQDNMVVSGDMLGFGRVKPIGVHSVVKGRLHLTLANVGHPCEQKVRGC
Experiment: pull-down; GFP-KIF13B-C2^861-1,000 held on anti-GFP immunocomplexes, washed two times in high salt buffer (600 mM NaCl, 10 mM Tris-HCl, 0.1% NP-40); bacterially purified GST-NPHP4-C2^650-839 (500 ng/µl) added in modified EBC buffer (140 mM NaCl, 10 mM Tris-HCl, 5 mM EDTA, 0.5% NP-40); standard GFP IP
Conditions: both partners purified

B1: GFP-KIF13B-C2^861-1,000 (domain or fragment, human, UniProt Q9NQT8 861-1000, looked up)
chain: KETQENKLVCMVKILQATGLPQHLSHFVFCKYSFWDQQEPVIVAPEVDTSSSSVSKEPHCMVVFDHCNEFSVNITEDFIEHLSEGALAIEVYGHKINDPRKNPALWDLGIIQAKTRSLRDRWSEVTRKLEFWVQILEQNE
notes: made by PCR from the GFP-KIF13B plasmid and cloned into pEGFP-C1; also called KIF13B RPGRIP1N-C2 type domain; source: HEK293T, transfected, in lysate; also immunoisolated on anti-GFP beads with high salt washes
- binding result: binds
